pKd: −log10 of the molar value.

Targets include PaduaKA-HSAQMP (human) (UniProt P02768); PaduaKR-HSAQMP (human) (UniProt P02768); FIXKR-HSAWT (human) (UniProt P02768); FIXKA-HSAWT (human) (UniProt P02768); Padua-HSAQMP (human).
Common to all, as to assay: SPR; Biacore T200, 25 °C, pH 5.5 (177 mM phosphate, 85 mM NaCl, 0.005% TWEEN-20); FIX-HSA variants amine-coupled (200 RU) on CM5; soluble His-tagged hFcRn (15.6-2000.0 nM for HSAWT, 1.95-62.5 nM for HSAQMP) or mFcRn (7.8-8000.0 nM for HSAWT, 3.9-500 nM for HSAQMP) injected; 1:1 Langmuir model

As to “soluble truncated His-tagged human neonatal Fc receptor (from UniProt P55899 24-297; P61769 21-119)”, the pKd is 9.70 with PaduaKA-HSAQMP (human), 9.52 in the assay with PaduaKR-HSAQMP (human), 6.72 with FIXKR-HSAWT (human) and 6.75 with FIXKA-HSAWT (human). In addition, the koff amounted to 6e-05 s⁻¹ with PaduaKA-HSAQMP (human), 7e-05 s⁻¹ in the assay with PaduaKR-HSAQMP (human), 0.00827 s⁻¹ with FIXKR-HSAWT (human) and 0.00769 s⁻¹ with FIXKA-HSAWT (human).
Turning to “soluble truncated His-tagged mouse neonatal Fc receptor (from UniProt Q61559 22-297; P01887 21-119)”, the pKd is 7.29 with PaduaKA-HSAQMP (human), 7.26 in the assay with PaduaKR-HSAQMP (human) and 7.35 in the assay with Padua-HSAQMP (human). Besides, the koff stood at 0.0028 s⁻¹ with PaduaKA-HSAQMP (human), 0.00429 s⁻¹ with PaduaKR-HSAQMP (human) and 0.00512 s⁻¹ with Padua-HSAQMP (human).

Values taken from article PMC12480940.
